# Assay results taken from IntAct's records for PubMed 23001144.
# Biological target: tir_eco27 tir (UniProt B7UM99)
# Sequence (B7UM99 whole entry): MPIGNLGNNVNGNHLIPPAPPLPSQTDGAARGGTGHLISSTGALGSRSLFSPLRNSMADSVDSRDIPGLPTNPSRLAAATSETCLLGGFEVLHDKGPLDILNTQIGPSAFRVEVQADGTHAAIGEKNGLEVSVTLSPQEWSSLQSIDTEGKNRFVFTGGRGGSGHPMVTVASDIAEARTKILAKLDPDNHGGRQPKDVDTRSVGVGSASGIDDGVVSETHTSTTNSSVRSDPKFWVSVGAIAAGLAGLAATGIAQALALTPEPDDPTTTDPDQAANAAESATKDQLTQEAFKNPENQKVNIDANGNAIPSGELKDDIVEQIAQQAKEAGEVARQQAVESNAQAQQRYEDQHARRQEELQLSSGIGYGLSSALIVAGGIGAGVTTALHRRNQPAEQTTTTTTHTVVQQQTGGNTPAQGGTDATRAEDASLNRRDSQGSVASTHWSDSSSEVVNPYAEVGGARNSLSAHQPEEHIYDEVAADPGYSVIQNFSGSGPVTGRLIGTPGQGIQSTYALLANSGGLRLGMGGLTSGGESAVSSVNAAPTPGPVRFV
# Sequence of Tyrosine-protein phosphatase non-receptor type 6 (Homo sapiens), P29350 C453S (P29350 whole entry C453S): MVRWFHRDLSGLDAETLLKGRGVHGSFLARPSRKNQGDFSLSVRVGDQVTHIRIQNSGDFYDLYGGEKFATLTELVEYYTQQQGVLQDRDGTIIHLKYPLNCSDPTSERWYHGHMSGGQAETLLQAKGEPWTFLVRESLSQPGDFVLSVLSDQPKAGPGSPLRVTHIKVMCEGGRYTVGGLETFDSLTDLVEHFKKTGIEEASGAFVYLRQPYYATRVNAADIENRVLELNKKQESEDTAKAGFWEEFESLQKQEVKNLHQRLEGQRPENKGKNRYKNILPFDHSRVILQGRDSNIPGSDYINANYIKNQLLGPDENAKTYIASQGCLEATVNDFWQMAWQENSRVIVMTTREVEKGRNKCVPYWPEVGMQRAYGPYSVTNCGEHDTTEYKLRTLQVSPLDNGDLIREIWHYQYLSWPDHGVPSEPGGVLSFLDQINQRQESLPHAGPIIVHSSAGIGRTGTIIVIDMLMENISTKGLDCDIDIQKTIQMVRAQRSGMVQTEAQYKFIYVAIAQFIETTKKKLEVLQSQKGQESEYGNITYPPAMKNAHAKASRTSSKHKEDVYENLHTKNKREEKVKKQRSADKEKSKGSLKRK
substance,measurement,value
"Tyrosine-protein phosphatase non-receptor type 6 (Homo sapiens), P29350 C453S",effect of a mutation on the interaction,decreasing interaction
